Numbering of substitutions follows the chain as printed. In names and notes the source's numbering stands.
B1: anti-CD200R antibody clone 26.1.2 (mIgG1k isotype) (antibody, V domains shown)
VH: EVQLQQSGPELVKPGASVKMSCKASGYTFTSYVMHWVKQKPGQGLEWIGYIHPYNDDIKHNEKFKDKATLTSAKSSSTVYMELSSLTSEDSAVYYCAREEYYGSRFAYWGQGTLVTVSA
VL: DIVLTQSPASLAVSLGQRATISCRASKSVRTSGYSYLHWYQQKPGQPPKLLIYLASNLESGVPARFSGSGSGTDFTLNIHPVEEEDAATYYCQYSGELPFTFGGGTKLEIKR
notes: Murine hybridoma antibody, IgG1 kappa
B2: anti-CD200R antibody clone 2.2.7 (mIgG1k isotype) (antibody, V domains shown)
VH: QVQLKESGPGLVAPSQSLSITCTVSGFSLTSYGVHWVRQLPGKGLEWLGVIWAGGGTNYNSALMSRLSISKDNSKSQVFLKMNRLQTDDTAIYYCAREGLPRAMDYWGQGTSVTVSS
VL: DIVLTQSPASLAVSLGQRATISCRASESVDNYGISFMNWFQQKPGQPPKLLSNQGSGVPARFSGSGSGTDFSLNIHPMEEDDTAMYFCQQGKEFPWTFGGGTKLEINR
notes: as for B1
B3: Antibody I-4P (antibody, human IgG4 S228P, kappa, V domains shown)
VH: QVQLVQSGAEVKKPGASVKVSCKASGFSFSSGYYMAWVRQAPGQGLEWMGLIGVGSGSLWYAQKFQGRVTMTRDTSTSTVYMELSSLRSEDTAVYYCARHFALSDPFNLWGQGTLVTVSS
VL: EIVLTQSPDFQSVTPKEKVTITCQASESIDSYLLWYQQKPDQSPKLLIKQASTLASGVPSRFSGSGSGTDFTLTINSLEAEDAATYYCQNYYDISSNDFGGGTKVEIKR
notes: also called AbI-4P; J-4P
B4: hu2131_v8 (antibody, human IgG1, V domains shown)
VH: QVQLVQSGAEVKKPGASVKLSCKASGHTFTSYWMHWVKQAPGQGLEWIGNIYPGSGSINYDEKFQGRATLTVDTSTRTAYMELSSLRSEDTAVYYCLTMTGTSWGRGTLVTVSS
VL: DVQMTQSPSSLSVSVGDRVTITCQASQGTPINLHWFQQKPGKAPKLLISGASNLEDGVPSRFSGSRYGTDFTFTISSLQPEDIATYFCLQFTYIPWTFGQGTKLEIK
notes: Expressed as human IgG1 with P238D Fc mutation
B5: hu2131_v14 (antibody, human IgG1, V domains shown)
VH: B4 VH with L20V, K38R, A68V, L70M, R77S
VL: B4 VL with V2I, R66G, Y67S, F87Y
notes: as for B4
B6: hu2131_v7 (antibody, human IgG1, V domains shown)
VH: B4 VH
VL: B4 VL with I21M, D70A, F73L
notes: as for B4
B7: hu2131_v16 (antibody, human IgG1, V domains shown)
VH: B4 VH with L20V, K38R, I48M, A68V, L70M, V72A, R77S, A79V
VL: B4 VL with I21M, D70A, F73L, P80D
notes: as for B4
B8: hu2131_v11 (antibody, human IgG1, V domains shown)
VH: B4 VH with L20V, K38R, A68V, L70M, R77S
VL: B4 VL with I21M, D70A, F73L, P80D
notes: as for B4
B9: hu2131_v13 (antibody, human IgG1, V domains shown)
VH: B4 VH with L20V, K38R, A68V, L70M, R77S
VL: B4 VL
notes: as for B4
B10: hu2131_v12 (antibody, human IgG1, V domains shown)
VH: B4 VH with L20V, K38R, A68V, L70M, R77S
VL: B4 VL with I21M, D70A, F73L
notes: as for B4
B11: hu2131_v4 (antibody, human IgG1, V domains shown)
VH: B4 VH with A9S, V11L, T91S
VL: B4 VL with V2I, R66G, Y67S, F87Y
notes: as for B4
B12: hu2131_v10 (antibody, human IgG1, V domains shown)
VH: B4 VH
VL: B4 VL with V2I, R66G, Y67S, D70E, I83A, F87Y
notes: as for B4
B13: hu2131_v17 (antibody, human IgG1, V domains shown)
VH: B4 VH with L20V, K38R, I48M, A68V, L70M, V72A, R77S, A79V
VL: B4 VL with I21M, D70A, F73L
notes: as for B4
B14: hu2131_v2 (antibody, human IgG1, V domains shown)
VH: B4 VH with A9S, V11L, T91S
VL: B4 VL with I21M, D70A, F73L
notes: as for B4
B15: hu2131_v3 (antibody, human IgG1, V domains shown)
VH: B4 VH with A9S, V11L, T91S
VL: B4 VL
notes: as for B4
B16: hu2131_v9 (antibody, human IgG1, V domains shown)
VH: B4 VH
VL: B4 VL with V2I, R66G, Y67S, F87Y
notes: as for B4
B17: hu2131_v15 (antibody, human IgG1, V domains shown)
VH: B4 VH with L20V, K38R, A68V, L70M, R77S
VL: B4 VL with V2I, R66G, Y67S, D70E, I83A, F87Y
notes: as for B4
B18: hu2131_v1 (antibody, human IgG1, V domains shown)
VH: B4 VH with A9S, V11L, T91S
VL: B4 VL with I21M, D70A, F73L, P80D
notes: as for B4
B19: hu2131_v5 (antibody, human IgG1, V domains shown)
VH: B4 VH with A9S, V11L, T91S
VL: B4 VL with V2I, R66G, Y67S, D70E, I83A, F87Y
notes: as for B4
B20: hu2131_v19 (antibody, human IgG1, V domains shown)
VH: B4 VH with L20V, K38R, I48M, A68V, L70M, V72A, R77S, A79V
VL: B4 VL with V2I, R66G, Y67S, F87Y
notes: as for B4
B21: hu2131_v18 (antibody, human IgG1, V domains shown)
VH: B4 VH with L20V, K38R, I48M, A68V, L70M, V72A, R77S, A79V
VL: B4 VL
notes: as for B4
B22: hu2131_v6 (antibody, human IgG1, V domains shown)
VH: B4 VH
VL: B4 VL with I21M, D70A, F73L, P80D
notes: as for B4
B23: Antibody hu2131_Q1E hIgG1k P238D (antibody)
heavy: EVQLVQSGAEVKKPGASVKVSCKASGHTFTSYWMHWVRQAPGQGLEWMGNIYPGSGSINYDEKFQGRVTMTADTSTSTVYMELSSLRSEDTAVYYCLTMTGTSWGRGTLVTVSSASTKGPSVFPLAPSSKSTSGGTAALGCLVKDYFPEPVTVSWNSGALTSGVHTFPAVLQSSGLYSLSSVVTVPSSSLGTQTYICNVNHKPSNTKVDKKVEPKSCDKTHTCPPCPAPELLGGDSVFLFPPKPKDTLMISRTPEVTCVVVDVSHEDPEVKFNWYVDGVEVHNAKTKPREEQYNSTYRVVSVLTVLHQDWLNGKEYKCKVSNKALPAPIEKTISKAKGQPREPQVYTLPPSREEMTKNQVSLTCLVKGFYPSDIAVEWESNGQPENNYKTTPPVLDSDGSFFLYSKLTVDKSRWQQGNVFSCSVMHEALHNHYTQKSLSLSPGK
light: DIQMTQSPSSLSVSVGDRVTITCQASQGTPINLHWFQQKPGKAPKLLISGASNLESGVPSRFSGSGSGTEFTFTISSLQPEDAATYYCLQFTYIPWTFGQGTKLEIKRTVAAPSVFIFPPSDEQLKSGTASVVCLLNNFYPREAKVQWKVDNALQSGNSQESVTEQDSKDSTYSLSSTLTLSKADYEKHKVYACEVTHQGLSSPVTKSFNRGEC

Target: T1, soluble cynomolgus macaque CD200R1 extracellular domain (cynomolgus macaque, UniProt G7NZT0 29-266)
T1 construct: extracellular domain; also called Cynomolgus CD200R
T1 sequence: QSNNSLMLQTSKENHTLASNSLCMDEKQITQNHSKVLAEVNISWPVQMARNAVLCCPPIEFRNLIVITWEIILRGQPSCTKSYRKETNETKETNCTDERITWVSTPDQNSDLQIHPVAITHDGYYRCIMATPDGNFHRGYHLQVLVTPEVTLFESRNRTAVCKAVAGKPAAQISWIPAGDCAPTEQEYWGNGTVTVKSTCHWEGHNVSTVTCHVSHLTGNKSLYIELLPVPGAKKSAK
Assay: SPR, captured antibody, soluble monomeric receptor injected, single cycle kinetics, 37 C
Method: (§1) The binding affinity and kinetics of the CD200R antibodies of the present disclosure to human or cynomolgus CD200R were determined by surface plasmon resonance (SPR) using the Biacore T200 (GE Healthcare). Mouse antibody capture kit (GE Healthcare) was used to coat a Series S CM5 Sensor Chip (GE Healthcare) with polyclonal anti-mouse IgG.
(§2) Anti-CD200R antibody was captured onto the biosensor surface and a negative control antibody (clone Mopc21; Biolegend) captured in the reference channel. Various concentrations of monomeric soluble human CD200R extracellular domain, soluble cynomolgus macaque CD200R1 extracellular domain or soluble cynomolgus macaque CD200RLa (a highly homologous activating receptor) were injected over the immobilized antibodies in the buffer 10 mM Hepes, 150 mM NaCl, 0.005% v/v Surfactant P20, pH 7.4 (HBS-P) at 37° C., in a single cycle kinetics analysis. Association and dissociation rates were fitted using BiaEvaluation Software (GE Healthcare) after reference and blank subtractions, and dissociation constants were calculated (Table 2).

| Binder | Kd |
| --- | --- |
| B1 | 60 nM |
| B2 | 159 nM |

Target: T2, monomeric soluble human CD200R extracellular domain (human, UniProt Q8TD46 29-265)
T2 construct: extracellular domain; also called hCD200R; monomeric CD200R protein
T2 sequence (looked up): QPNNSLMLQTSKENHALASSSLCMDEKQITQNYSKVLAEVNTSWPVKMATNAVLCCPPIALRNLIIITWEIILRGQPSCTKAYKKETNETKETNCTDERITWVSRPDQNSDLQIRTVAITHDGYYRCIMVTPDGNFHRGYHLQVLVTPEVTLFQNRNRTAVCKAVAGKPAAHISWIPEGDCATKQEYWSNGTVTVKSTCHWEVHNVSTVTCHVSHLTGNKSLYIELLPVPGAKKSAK
Assay: as above
Method: as §1, §2

| Binder | Kd |
| --- | --- |
| B1 | 0.7 nM |
| B2 | 27.6 nM |

Target: T2, monomeric soluble human CD200R …
Assay: BLI (Octet), antibody on anti-human Fc probes, monomeric CD200R in solution, 25 C, 1:1 global fit
Method: Humanised variant antibodies combining the different heavy and light variable domains described in Example 6 were produced by transient transfection of HEK293 cells. All antibodies were expressed on a human IgGI isotype with a P238D Fc mutation. The unpurified supernatants were analysed by Protein A-HPLC to determine the antibody concentrations, as a measure of expression yield. […] Binding affinity of humanized variants to human CD200R was assessed by bio-layer interferometry on an Octet R4 instrument. Each antibody was captured directly onto anti-human Fc capture probes (Sartorius 18-5060) for 60 sec followed by baseline setting in assay buffer (DPBS, 0.01% Polysorbate-20). Association of monomeric CD200R protein to immobilised antibodies was measured in 4 different protein concentrations (300, 100, 30 and 10 nM in assay buffer) at 25° C., with an association time of 120s and dissociation of 120s in assay buffer only. A reference probe with no antibody immobilised was used for background subtraction. Kinetic rate constants and binding KDs were calculated using Octet Analysis Studio 12 software. Global curve fitting based on all 4 concentrations using a 1:1 model was performed, from which kon and koff were obtained to calculate KD using the relationship KD=koff/kon.

| Binder | Kd |
| --- | --- |
| B3 | 2160 pM |
| B4 | 3.18 pM |
| B5 | 2.9 pM |
| B6 | 3.06 pM |
| B7 | 1.03 pM |
| B8 | 2.45 pM |
| B9 | 2.94 pM |
| B10 | 4.14 pM |
| B11 | 2.74 pM |
| B12 | 4.43 pM |
| B13 | 183 pM |
| B14 | 3.84 pM |
| B15 | 3.88 pM |
| B16 | 3.07 pM |
| B17 | 3.18 pM |
| B18 | 3.63 pM |
| B19 | 5 pM |
| B20 | 4.23 pM |
| B21 | 34.4 pM |
| B22 | 3.96 pM |

Target: T3, extracellular domain of cyno CD200R (SinoBiological 11232-C08H, Met1-Leu267) (cynomolgus, UniProt G7NZT0 25-268)
T3 construct: range 1-267; Bought protein
T3 sequence: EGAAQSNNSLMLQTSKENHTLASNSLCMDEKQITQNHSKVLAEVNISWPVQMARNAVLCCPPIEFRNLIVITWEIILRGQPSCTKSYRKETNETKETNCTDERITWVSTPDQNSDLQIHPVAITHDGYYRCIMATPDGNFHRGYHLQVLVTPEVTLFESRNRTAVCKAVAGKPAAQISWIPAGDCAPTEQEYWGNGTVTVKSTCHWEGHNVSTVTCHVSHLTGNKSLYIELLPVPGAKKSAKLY
Assay: SPR (Biacore), antibody captured by anti-human Fc, CD200R extracellular domain injected, single cycle kinetics, 25 C
Method: This example investigates in vitro CD200R binding of anti-CD200R antibodies by surface plasmon resonance. Surface plasmon resonance binding experiments with purified anti-CD200R antibody (expressed on a hIgG1 isotype with a P238D Fc mutation) were performed using the Biacore T200 and 8K+instruments. Anti-human Fc antibody (Life Technologies H10500) was amine-coupled to a C1 sensor chip using standard amine-coupling chemistry. Residual activated carboxyls were blocked with ethanolamine. Antibodies with a human Fc were then captured on these surfaces.
To assess the binding of hu2131_v20_D56S antibody and variants (antibody hu213l_Q1E and antibody hu2131_Q1E_M99G) to the extracellular domains of human CD200R (Met29-Leu243) and cyno CD200R (SinoBiological 11232-C08H, Metl-Leu267), 10-30 RUs of antibody were captured. CD200R proteins were diluted into running buffer (10 mM HEPES, 150 mM NaCl, 3 mM EDTA, 0.01% Polysorbate 20, pH 7.4 with 0.1 mg/mL BSA) (full-length antibody sequences are disclosed in Table 10). Five three-fold serial dilutions were performed for each CD200R, with highest concentration being 100 nM. Samples were injected using a single cycle kinetics scheme (Karlsson Anal Biochem et al 2006). Data were analyzed using Biacore Insight Evaluation Software and fit to a simple kinetic model, from which kon and koff were obtained to calculate KD using the relationship KD=koff/kon. Experiments were run at 25° C.

| Binder | Kd | koff | kon |
| --- | --- | --- | --- |
| B23 | ≤ 0.0392 nM | ≤ 1e-05 s⁻¹ | 255000 M⁻¹ s⁻¹ |
